Legend:
[1] = molecular target: SHHN-E176A (N-terminal construct of human SHH with E176A, N-lipid containing, C-lipid lacking) (human); experiment: cross-linking
[2] = molecular target: SHH-E177A (mouse SHH with E177A, expressed from the targeted endogenous locus) (mouse); experiment: SDS-resistant cross-linked form on Western blot of tissue extract

Row | Substance | stoichiometry N [1] | stoichiometry N [2]
1 | SHHN-E176A (N-terminal construct of human SHH with E176A, N-lipid containing, C-lipid lacking) (domain or fragment) | 2 | 
2 | SHH-E177A (mouse SHH with E177A, expressed from the targeted endogenous locus) (natural protein) |  | 2

From publication PMC6047533
